This note sets out measurements from publication PMC4485320.

The target of test [1] is E. coli thioredoxin reductase (Escherichia coli) (UniProt P0A9P4).
For test [2] the target is unchanged. The source holds these as a separate data set.

Sequence of UniProt P0A9P4 (P0A9P4 whole entry): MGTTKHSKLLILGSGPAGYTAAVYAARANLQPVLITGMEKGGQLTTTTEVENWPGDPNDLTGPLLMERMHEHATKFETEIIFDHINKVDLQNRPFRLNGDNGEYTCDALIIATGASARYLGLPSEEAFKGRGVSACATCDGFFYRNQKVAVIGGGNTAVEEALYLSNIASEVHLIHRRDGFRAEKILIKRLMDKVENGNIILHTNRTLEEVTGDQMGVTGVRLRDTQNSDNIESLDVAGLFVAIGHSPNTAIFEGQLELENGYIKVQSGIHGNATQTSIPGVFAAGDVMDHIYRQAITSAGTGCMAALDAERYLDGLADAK

Regarding “Escherichia coli thioredoxin, wild type (from UniProt P0AA25 1-109) (natural protein)”, the kcat of the reduction of the Trx variant by TrxR (Michaelis-Menten kinetics, DTNB/NADPH assay) in test [1] was 10 s⁻¹. Also, the kcat/KM of the reduction of Trx by TrxR in test [2] is over 1e+06 M⁻¹ s⁻¹.
